The series concerns O=C(O)P(=O)(O)O. Conditions: Human immunodeficiency virus 1.

Description: Inhibition of HIV1 reverse transcriptase E89K mutant mediated single strand incorporation into DNA at +16 position using polypurine tract PPT+16/PPT57 template after 7 mins by gel based assay

As for “Human immunodeficiency virus type 1 reverse transcriptase (Human immunodeficiency virus 1) (from UniProt Q72547) E89K”, the kcat/Km was 6000 M⁻¹ s⁻¹.

The record behind these values is ChEMBL document CHEMBL1156423.
